In publication PMC9352680, “A comprehensive thermodynamic model for RNA binding by the Saccharomyces cerevisiae Pumilio protein PUF4”:

T1: PUF4 RNA-binding domain (Saccharomyces cerevisiae, UniProt P25339 537-888)
T1 sequence: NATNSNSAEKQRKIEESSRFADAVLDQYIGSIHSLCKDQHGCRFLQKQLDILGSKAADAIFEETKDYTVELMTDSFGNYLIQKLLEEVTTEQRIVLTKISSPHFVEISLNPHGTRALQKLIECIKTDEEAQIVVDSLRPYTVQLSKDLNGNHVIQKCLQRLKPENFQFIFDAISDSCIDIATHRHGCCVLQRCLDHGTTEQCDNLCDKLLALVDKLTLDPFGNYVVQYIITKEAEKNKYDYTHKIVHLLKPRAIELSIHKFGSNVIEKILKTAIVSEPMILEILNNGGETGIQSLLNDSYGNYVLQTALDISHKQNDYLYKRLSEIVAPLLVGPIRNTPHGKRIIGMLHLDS

B1: Id_ii_S2_P4E.2_K4.1_C4.2_[C-2A]_H4.1_A4.1_F4.1_T4.2_[G10T]_[T11C] (ssRNA)
RNA: UUUGAUUAAUAUGAUAUCGUUCUUUCUAUUGUAUAUUAUCUUCUUUCUCGAUAUCAUAUUAAUCUUU
B2: Id_ii_S2_P4E.2_K4.1_C4.2_[T-1A]_H4.1_A4.1_F4.1_T4.2_[G10A] (ssRNA)
RNA: UUUGAUUAAUAUGAUAUCGUUCUUUCUCAUGUAUAUUAAUUUCUUUCUCGAUAUCAUAUUAAUCUUU
B3: Id_ii_S2_P4E.2_K4.1_C4.2_[T-1A]_H4.1_A4.1_F4.1_T4.2 (ssRNA)
RNA: UUUGAUUAAUAUGAUAUCGUUCUUUCUCAUGUAUAUUAGUUUCUUUCUCGAUAUCAUAUUAAUCUUU
B4: Id_ii_S2_P4E.2_K4.1_C4.2_[T-1C]_H4.1_A4.1_F4.1_T4.2_[G10A]_[T11A] (ssRNA)
RNA: UUUGAUUAAUAUGAUAUCGUUCUUUCUCCUGUAUAUUAAAUUCUUUCUCGAUAUCAUAUUAAUCUUU
B5: Id_ii_S2_P4E.2_K4.1_C4.2_[C-2A]_[T-1A]_H4.1_A4.1_F4.1_T4.2_[G10A]_[T11C] (ssRNA)
RNA: UUUGAUUAAUAUGAUAUCGUUCUUUCUAAUGUAUAUUAACUUCUUUCUCGAUAUCAUAUUAAUCUUU
B6: Id_ii_S2_P4E.2_K4.1_C4.2_H4.1_A4.1_F4.1_T4.2_[G10C]_[T11C] (ssRNA)
RNA: UUUGAUUAAUAUGAUAUCGUUCUUUCUCUUGUAUAUUACCUUCUUUCUCGAUAUCAUAUUAAUCUUU
B7: Id_ii_S2_P4E.2_K4.1_C4.2_[T-1C]_H4.1_A4.1_F4.1_T4.2_[G10C] (ssRNA)
RNA: UUUGAUUAAUAUGAUAUCGUUCUUUCUCCUGUAUAUUACUUUCUUUCUCGAUAUCAUAUUAAUCUUU
B8: Id_ii_S2_P4E.2_K4.1_C4.2_[C-2A]_[T-1A]_H4.1_A4.1_F4.1_T4.2_[G10T]_[T11C] (ssRNA)
RNA: UUUGAUUAAUAUGAUAUCGUUCUUUCUAAUGUAUAUUAUCUUCUUUCUCGAUAUCAUAUUAAUCUUU
B9: Ie_S2_P3E.2_K3.1_C3.2_H3.1_A3.1_F3.1_[+7T]_T3.2 (ssRNA)
RNA: UUUGAUUAAUAUGAUAUCGUUCUUUCUCUUGUAUAUUAUAUUCUUUCUCGAUAUCAUAUUAAUCUUU
B10: Id_ii_S2_P4E.2_K4.1_C4.2_[T-1A]_H4.1_A4.1_F4.1_T4.2_[G10A]_[T11A] (ssRNA)
RNA: UUUGAUUAAUAUGAUAUCGUUCUUUCUCAUGUAUAUUAAAUUCUUUCUCGAUAUCAUAUUAAUCUUU
B11: Id_ii_S2_P4E.2_K4.1_C4.2_[C-2A]_[T-1A]_H4.1_A4.1_F4.1_T4.2_[G10A]_[T11A] (ssRNA)
RNA: UUUGAUUAAUAUGAUAUCGUUCUUUCUAAUGUAUAUUAAAUUCUUUCUCGAUAUCAUAUUAAUCUUU
B12: Id_ii_S2_P4E.3_K4.2_C4.2_[C-2G]_[T-1C]_H4.2_A4.1_F4.1_T4.2_[G10C]_[T11C] (ssRNA)
RNA: UUUGAUUAAUAUGAUAUCGUUCUUUCUGCUAUAUAUUACCUUCUUUCUCGAUAUCAUAUUAAUCUUU
B13: Id_ii_S2_P4E.2_K4.1_C4.2_[C-2A]_H4.1_A4.1_F4.1_T4.2_[G10T]_[T11G] (ssRNA)
RNA: UUUGAUUAAUAUGAUAUCGUUCUUUCUAUUGUAUAUUAUGUUCUUUCUCGAUAUCAUAUUAAUCUUU
B14: Id_ii_S2_P4E.2_K4.1_C4.2_H4.1_A4.1_F4.1_T4.2_[G10A] (ssRNA)
RNA: UUUGAUUAAUAUGAUAUCGUUCUUUCUCUUGUAUAUUAAUUUCUUUCUCGAUAUCAUAUUAAUCUUU
B15: Id_ii_S2_P4E.2_K4.1_C4.2_[T-1A]_H4.1_A4.1_F4.1_T4.2_[G10C]_[T11C] (ssRNA)
RNA: UUUGAUUAAUAUGAUAUCGUUCUUUCUCAUGUAUAUUACCUUCUUUCUCGAUAUCAUAUUAAUCUUU
B16: Id_ii_S2_P4E.2_K4.1_C4.2_[C-2A]_H4.1_A4.1_F4.1_T4.2_[G10A] (ssRNA)
RNA: UUUGAUUAAUAUGAUAUCGUUCUUUCUAUUGUAUAUUAAUUUCUUUCUCGAUAUCAUAUUAAUCUUU
B17: Id_ii_S2_P4E.2_K4.1_C4.2_[T-1C]_H4.1_A4.1_F4.1_T4.2 (ssRNA)
RNA: UUUGAUUAAUAUGAUAUCGUUCUUUCUCCUGUAUAUUAGUUUCUUUCUCGAUAUCAUAUUAAUCUUU
B18: Id_ii_S2_P4E.2_K4.1_C4.2_[T-1C]_H4.1_A4.1_F4.1_T4.2_[G10T] (ssRNA)
RNA: UUUGAUUAAUAUGAUAUCGUUCUUUCUCCUGUAUAUUAUUUUCUUUCUCGAUAUCAUAUUAAUCUUU
B19: Id_ii_S2_P4E.3_K4.2_C4.2_[C-2G]_[T-1G]_H4.2_A4.1_F4.1_T4.2_[G10A] (ssRNA)
RNA: UUUGAUUAAUAUGAUAUCGUUCUUUCUGGUAUAUAUUAAUUUCUUUCUCGAUAUCAUAUUAAUCUUU
B20: Id_ii_S2_P4E.2_K4.1_C4.2_H4.1_A4.1_F4.1_T4.2_[G10C] (ssRNA)
RNA: UUUGAUUAAUAUGAUAUCGUUCUUUCUCUUGUAUAUUACUUUCUUUCUCGAUAUCAUAUUAAUCUUU
B21: Id_ii_S2_P4E.2_K4.1_C4.2_[T-1G]_H4.1_A4.1_F4.1_T4.2_[G10A]_[T11G] (ssRNA)
RNA: UUUGAUUAAUAUGAUAUCGUUCUUUCUCGUGUAUAUUAAGUUCUUUCUCGAUAUCAUAUUAAUCUUU

biological target: T1, PUF4 RNA-binding domain; experiment: Mg; RNA-MaP; 20 mM Na-HEPES pH 7.4, 30 mM KOAc, 0.75 mM MgCl2, 0.1% Tween-20, 5% glycerol, 0.1 mg/mL BSA, 2 mM DTT; 25 C; 0.0125-409.6 nM protein; conditions: tags: N-His6-TEV cleaved; C-SNAP kept, Cy3B-labelled; label: tethered on chip by stalled RNA polymerase

| Binder | Kd |
| --- | --- |
| B1 | 0.401 nM |
| B2 | 0.506 nM |
| B3 | 0.425 nM |
| B4 | 0.324 nM |
| B5 | 1.96 nM |
| B6 | 0.362 nM |
| B7 | 0.482 nM |
| B8 | 1.1 nM |
| B9 | 0.308 nM |
| B10 | 0.937 nM |
| B11 | 3.89 nM |
| B12 | 23.6 nM |
| B13 | 0.705 nM |
| B14 | 0.317 nM |
| B15 | 0.746 nM |
| B16 | 0.782 nM |
| B17 | 0.166 nM |
| B18 | 0.15 nM |
| B19 | 57 nM |
| B20 | 0.572 nM |
| B21 | 1.7 nM |
| UCUCUUUAUAUUAUUGUCUCUU (ssRNA) [Ib_S1_P5E.1_K5.1_C5.1_H5.1_[G2A]_A5.1_F5.1_[A10G]_T5.1] | 242 nM |
| UCUCUUUCUAUUAUUGUCUCUU (ssRNA) [Ib_S1_P5E.1_K5.1_C5.1_H5.1_[G2C]_A5.1_F5.1_[A10G]_T5.1] | > 2300 nM |
